From patent US20200339676A1 (University of California, published 2020)

Key:
[1] = molecular target: Endogenous NOTCH1 (MDA-MB-231 cell lysate) (UniProt P46531 19-2555, limits assumed); experiment: co-immunoprecipitation of endogenous proteins, MDA-MB-231 lysates, Western blot
Method: (§1) Notch receptor activation can be regulated through direct interactions with binding partners²⁴. […] To address this possibility, co-immunoprecipitation experiments were performed using MBA-MD-231 cells lysates, which express detectable levels of all four Notch receptors (NOTCH1-4). Endogenous ROBO1 co-immunoprecipitated with NOTCH4, but not […], NOTCH2 or NOTCH3 (FIG. 3H and data not shown). Next, the expression and subcellular localization of the NOTCH4 intracellular domain (N4-ICD) and HES1 was examined in control (Scr) and Robo1 (siR1) knockdown HC11 cells. Expression of Robo1 was inhibited in HC11 cells that were then primed for differentiation as described above. […] This effect was not observed in control Robo1 knockdown cells engineered to overexpress Robo1 (siR1+o/e) or cells treated with the γ-secretase inhibitor GSI (siR1+GSI) (FIGS. 3I-3K).
(§2) Adherent cells were lysed in 1 mL of 1× lysis buffer ([…] NaCl, 10 mM Tris-HCl pH8, […] EDTA, 1 mM sodium orthovanadate) supplemented with 1 percent Igepal NP40 (Sigma), 1 mM phenylmethanesulfonylfluoride (PMSF), 1 mM leupeptin, 1 mM aprotinin, and phosphatase inhibitors (Roche Complete). Cell lysate was incubated for 15 minutes at 4° C. with gentle rocking followed by centrifugation at 12,000 rpms for 10 minutes. […]

[2] = molecular target: Endogenous NOTCH2 (MDA-MB-231 cell lysate) (UniProt Q04721 26-2471, limits assumed); experiment: co-immunoprecipitation of endogenous proteins, MDA-MB-231 lysates (data not shown)
Method: as §1, §2

[3] = molecular target: Endogenous NOTCH3 (MDA-MB-231 cell lysate) (UniProt Q9UM47 40-2321, limits assumed); experiment: as above
Endogenous NOTCH3 (MDA-MB-231 cell lysate), sequence (Q9UM47 40-2321 limits assumed): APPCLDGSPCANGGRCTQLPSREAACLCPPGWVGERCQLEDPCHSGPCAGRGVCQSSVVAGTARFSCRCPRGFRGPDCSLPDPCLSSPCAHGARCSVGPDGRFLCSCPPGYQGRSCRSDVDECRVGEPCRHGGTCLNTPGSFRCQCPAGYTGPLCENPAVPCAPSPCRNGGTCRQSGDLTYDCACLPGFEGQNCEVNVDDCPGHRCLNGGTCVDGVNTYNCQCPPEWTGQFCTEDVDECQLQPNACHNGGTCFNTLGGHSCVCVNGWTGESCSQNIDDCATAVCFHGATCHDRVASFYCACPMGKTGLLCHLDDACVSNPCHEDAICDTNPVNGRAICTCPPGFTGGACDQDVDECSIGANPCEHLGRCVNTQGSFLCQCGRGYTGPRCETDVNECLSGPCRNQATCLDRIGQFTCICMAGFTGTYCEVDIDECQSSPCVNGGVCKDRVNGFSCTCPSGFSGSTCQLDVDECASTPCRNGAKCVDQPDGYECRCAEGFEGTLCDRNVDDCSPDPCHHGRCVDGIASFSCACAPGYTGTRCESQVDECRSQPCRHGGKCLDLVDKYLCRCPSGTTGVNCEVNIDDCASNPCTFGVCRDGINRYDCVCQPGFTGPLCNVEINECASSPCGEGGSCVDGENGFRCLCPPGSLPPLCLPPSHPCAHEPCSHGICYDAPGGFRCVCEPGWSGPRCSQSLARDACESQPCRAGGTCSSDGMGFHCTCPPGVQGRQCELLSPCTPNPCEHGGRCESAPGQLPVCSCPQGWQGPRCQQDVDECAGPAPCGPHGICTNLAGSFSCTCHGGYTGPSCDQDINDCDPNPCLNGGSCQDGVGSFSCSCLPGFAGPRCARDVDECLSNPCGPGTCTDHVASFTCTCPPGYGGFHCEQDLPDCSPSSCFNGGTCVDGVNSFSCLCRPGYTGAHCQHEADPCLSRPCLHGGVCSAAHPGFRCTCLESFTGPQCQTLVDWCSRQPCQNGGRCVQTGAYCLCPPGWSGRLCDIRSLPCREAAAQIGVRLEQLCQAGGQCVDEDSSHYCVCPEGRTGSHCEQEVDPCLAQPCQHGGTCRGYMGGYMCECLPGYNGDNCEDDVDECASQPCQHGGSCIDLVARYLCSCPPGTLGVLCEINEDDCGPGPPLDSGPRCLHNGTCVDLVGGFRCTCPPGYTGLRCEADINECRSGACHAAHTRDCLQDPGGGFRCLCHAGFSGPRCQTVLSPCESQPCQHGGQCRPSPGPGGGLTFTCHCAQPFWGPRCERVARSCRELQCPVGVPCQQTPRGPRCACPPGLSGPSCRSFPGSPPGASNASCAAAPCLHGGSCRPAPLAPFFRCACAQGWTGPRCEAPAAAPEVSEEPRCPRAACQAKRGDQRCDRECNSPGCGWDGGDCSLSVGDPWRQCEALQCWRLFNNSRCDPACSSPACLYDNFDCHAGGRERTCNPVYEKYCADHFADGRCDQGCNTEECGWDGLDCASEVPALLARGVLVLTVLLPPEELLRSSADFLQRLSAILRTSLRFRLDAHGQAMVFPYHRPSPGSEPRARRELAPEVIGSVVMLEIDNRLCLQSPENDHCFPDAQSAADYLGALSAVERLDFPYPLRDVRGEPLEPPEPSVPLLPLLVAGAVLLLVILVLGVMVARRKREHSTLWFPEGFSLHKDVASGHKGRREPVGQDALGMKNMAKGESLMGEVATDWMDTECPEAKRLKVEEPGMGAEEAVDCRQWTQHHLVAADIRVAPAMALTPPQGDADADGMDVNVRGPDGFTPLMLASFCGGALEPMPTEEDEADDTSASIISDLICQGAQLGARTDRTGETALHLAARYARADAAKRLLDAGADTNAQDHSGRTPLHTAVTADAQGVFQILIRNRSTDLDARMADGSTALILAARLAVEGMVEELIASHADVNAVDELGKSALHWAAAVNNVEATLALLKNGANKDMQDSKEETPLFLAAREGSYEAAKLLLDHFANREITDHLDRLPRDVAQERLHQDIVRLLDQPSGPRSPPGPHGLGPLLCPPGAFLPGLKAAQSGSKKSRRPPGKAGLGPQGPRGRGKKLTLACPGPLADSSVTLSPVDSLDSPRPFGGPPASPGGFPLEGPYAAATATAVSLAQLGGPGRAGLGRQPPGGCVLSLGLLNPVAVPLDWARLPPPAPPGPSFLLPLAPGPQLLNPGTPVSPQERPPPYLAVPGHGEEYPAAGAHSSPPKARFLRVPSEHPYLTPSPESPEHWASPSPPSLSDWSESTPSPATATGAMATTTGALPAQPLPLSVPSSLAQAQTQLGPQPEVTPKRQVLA
Method: as §1, §2

Measured: binding result

Endogenous NOTCH1 (MDA-MB-231 cell lysate), sequence (P46531 19-2555 limits assumed): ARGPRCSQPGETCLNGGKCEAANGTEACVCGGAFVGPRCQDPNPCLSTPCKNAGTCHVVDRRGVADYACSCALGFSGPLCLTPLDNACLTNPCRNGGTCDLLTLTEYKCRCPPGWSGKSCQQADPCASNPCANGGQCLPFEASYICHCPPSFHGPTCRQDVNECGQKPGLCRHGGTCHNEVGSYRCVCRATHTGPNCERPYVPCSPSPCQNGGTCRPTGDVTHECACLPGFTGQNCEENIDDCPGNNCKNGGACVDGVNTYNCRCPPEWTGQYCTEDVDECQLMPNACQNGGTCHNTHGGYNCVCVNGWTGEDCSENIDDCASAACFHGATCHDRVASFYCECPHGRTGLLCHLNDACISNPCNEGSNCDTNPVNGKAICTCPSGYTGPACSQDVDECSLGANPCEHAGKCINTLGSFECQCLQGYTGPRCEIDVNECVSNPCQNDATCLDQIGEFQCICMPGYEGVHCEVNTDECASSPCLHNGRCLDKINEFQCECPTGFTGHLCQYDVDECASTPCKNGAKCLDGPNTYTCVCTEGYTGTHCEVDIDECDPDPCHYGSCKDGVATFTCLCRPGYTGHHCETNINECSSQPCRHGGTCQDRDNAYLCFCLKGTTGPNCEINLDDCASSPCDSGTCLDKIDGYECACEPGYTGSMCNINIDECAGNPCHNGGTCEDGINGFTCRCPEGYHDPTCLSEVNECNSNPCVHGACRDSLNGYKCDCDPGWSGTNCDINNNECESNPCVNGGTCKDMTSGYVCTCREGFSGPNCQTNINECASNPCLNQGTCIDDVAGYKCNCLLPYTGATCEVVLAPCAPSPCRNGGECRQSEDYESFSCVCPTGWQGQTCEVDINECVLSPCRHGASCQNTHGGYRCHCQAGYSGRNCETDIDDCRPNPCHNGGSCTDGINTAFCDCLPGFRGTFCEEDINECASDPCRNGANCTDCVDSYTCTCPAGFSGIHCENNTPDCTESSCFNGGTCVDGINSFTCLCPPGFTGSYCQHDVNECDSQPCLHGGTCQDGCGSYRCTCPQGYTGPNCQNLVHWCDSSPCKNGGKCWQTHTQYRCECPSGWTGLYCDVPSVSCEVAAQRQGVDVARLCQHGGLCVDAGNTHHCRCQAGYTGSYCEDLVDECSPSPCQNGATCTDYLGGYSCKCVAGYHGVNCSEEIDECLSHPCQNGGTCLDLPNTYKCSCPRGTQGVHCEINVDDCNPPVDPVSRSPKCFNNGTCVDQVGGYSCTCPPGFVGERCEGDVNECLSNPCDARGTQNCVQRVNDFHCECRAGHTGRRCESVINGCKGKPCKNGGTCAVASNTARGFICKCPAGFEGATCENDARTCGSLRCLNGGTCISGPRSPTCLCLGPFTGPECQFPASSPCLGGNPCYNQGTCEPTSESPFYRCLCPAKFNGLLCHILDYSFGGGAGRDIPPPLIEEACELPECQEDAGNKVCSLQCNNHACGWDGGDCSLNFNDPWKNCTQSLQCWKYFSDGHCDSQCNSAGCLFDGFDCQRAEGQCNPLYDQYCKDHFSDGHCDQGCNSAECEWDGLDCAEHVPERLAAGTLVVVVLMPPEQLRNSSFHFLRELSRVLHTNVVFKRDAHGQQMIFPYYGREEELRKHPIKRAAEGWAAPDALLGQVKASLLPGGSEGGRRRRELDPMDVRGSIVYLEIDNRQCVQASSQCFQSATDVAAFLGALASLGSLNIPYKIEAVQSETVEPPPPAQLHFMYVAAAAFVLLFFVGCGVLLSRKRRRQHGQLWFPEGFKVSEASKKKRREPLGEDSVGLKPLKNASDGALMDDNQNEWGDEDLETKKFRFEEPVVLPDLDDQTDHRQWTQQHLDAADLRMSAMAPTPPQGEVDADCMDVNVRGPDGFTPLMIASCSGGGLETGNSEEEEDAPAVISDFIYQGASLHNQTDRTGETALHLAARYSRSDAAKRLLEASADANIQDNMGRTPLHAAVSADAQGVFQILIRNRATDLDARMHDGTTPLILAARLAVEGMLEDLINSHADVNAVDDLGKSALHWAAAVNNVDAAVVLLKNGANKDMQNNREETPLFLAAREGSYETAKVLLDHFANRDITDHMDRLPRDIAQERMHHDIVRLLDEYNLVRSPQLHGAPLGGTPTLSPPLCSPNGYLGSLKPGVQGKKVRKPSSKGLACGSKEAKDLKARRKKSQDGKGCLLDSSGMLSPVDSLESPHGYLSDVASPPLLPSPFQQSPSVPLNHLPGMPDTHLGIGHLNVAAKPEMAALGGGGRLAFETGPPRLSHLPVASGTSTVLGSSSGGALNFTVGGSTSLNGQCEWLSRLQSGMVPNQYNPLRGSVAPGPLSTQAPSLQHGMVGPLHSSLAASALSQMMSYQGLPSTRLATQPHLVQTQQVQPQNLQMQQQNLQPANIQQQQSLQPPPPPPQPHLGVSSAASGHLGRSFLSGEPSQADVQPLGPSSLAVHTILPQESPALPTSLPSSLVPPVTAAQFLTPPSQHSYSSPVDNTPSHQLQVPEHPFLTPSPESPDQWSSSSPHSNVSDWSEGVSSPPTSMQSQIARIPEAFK

B1: Endogenous ROBO1 (MDA-MB-231 and HEK293 cell lysates) (receptor, UniProt Q9Y6N7 26-1651, looked up)
chain: QLIPDPEDVERGNDHGTPIPTSDNDDNSLGYTGSRLRQEDFPPRIVEHPSDLIVSKGEPATLNCKAEGRPTPTIEWYKGGERVETDKDDPRSHRMLLPSGSLFFLRIVHGRKSRPDEGVYVCVARNYLGEAVSHNASLEVAILRDDFRQNPSDVMVAVGEPAVMECQPPRGHPEPTISWKKDGSPLDDKDERITIRGGKLMITYTRKSDAGKYVCVGTNMVGERESEVAELTVLERPSFVKRPSNLAVTVDDSAEFKCEARGDPVPTVRWRKDDGELPKSRYEIRDDHTLKIRKVTAGDMGSYTCVAENMVGKAEASATLTVQEPPHFVVKPRDQVVALGRTVTFQCEATGNPQPAIFWRREGSQNLLFSYQPPQSSSRFSVSQTGDLTITNVQRSDVGYYICQTLNVAGSIITKAYLEVTDVIADRPPPVIRQGPVNQTVAVDGTFVLSCVATGSPVPTILWRKDGVLVSTQDSRIKQLENGVLQIRYAKLGDTGRYTCIASTPSGEATWSAYIEVQEFGVPVQPPRPTDPNLIPSAPSKPEVTDVSRNTVTLSWQPNLNSGATPTSYIIEAFSHASGSSWQTVAENVKTETSAIKGLKPNAIYLFLVRAANAYGISDPSQISDPVKTQDVLPTSQGVDHKQVQRELGNAVLHLHNPTVLSSSSIEVHWTVDQQSQYIQGYKILYRPSGANHGESDWLVFEVRTPAKNSVVIPDLRKGVNYEIKARPFFNEFQGADSEIKFAKTLEEAPSAPPQGVTVSKNDGNGTAILVSWQPPPEDTQNGMVQEYKVWCLGNETRYHINKTVDGSTFSVVIPFLVPGIRYSVEVAASTGAGSGVKSEPQFIQLDAHGNPVSPEDQVSLAQQISDVVKQPAFIAGIGAACWIILMVFSIWLYRHRKKRNGLTSTYAGIRKVPSFTFTPTVTYQRGGEAVSSGGRPGLLNISEPAAQPWLADTWPNTGNNHNDCSISCCTAGNGNSDSNLTTYSRPADCIANYNNQLDNKQTNLMLPESTVYGDVDLSNKINEMKTFNSPNLKDGRFVNPSGQPTPYATTQLIQSNLSNNMNNGSGDSGEKHWKPLGQQKQEVAPVQYNIVEQNKLNKDYRANDTVPPTIPYNQSYDQNTGGSYNSSDRGSSTSGSQGHKKGARTPKVPKQGGMNWADLLPPPPAHPPPHSNSEEYNISVDESYDQEMPCPVPPARMYLQQDELEEEEDERGPTPPVRGAASSPAAVSYSHQSTATLTPSPQEELQPMLQDCPEETGHMQHQPDRRRQPVSPPPPPRPISPPHTYGYISGPLVSDMDTDAPEEEEDEADMEVAKMQTRRLLLRGLEQTPASSVGDLESSVTGSMINGWGSASEEDNISSGRSSVSSSDGSFFTDADFAQAVAAAAEYAGLKVARRQMQDAAGRRHFHASQCPRPTSPVSTDSNMSAAVMQKTRPAKKLKHQPGHLRRETYTDDLPPPPVPPPAIKSPTAQSKTQLEVRPVVVPKLPSMDARTDRSSDRKGSSYKGREVLDGRQVVDMRTNPGDPREAQEQQNDGKGRGNKAAKRDLPPAKTHLIQEDILPYCRPTFPTSNNPRDPSSSSSMSSRGSGSRQREQANVGRRNIAEMQVLGGYERGEDNNEELEETES
notes: Endogenous full-length receptor in detergent cell lysate, immunoprecipitated with an anti-ROBO1 antibody; Human is inferred from the cell lines; also called R1
no binding: all assays above
